Data as given in PMC10206079, “Bioinformatics of cyanophycin metabolism genes and characterization of promiscuous isoaspartyl dipeptidases that catalyze the final step of cyanophycin degradation” (Scientific Reports, 2023).
Blank lines part the entries; values can stand above or below the molecule they belong to.

Columns and labels:
LmIadA = molecular target: T1, LmIadA (Leucothrix mucor, UniProt A0AA82WPE9); test: coupled Asp release assay (aspartate aminotransferase / malate dehydrogenase, NADH at […] nm); type: biochemical; settings: 1 mM dipeptide, 500 nM enzyme, 100 mM HEPES pH 8.2, 20 mM KCl
T1 construct: C-terminal TEV site and 8xHis tag (cut for structural work only); expressed in E. coli BL21(DE3); homooctamer, zinc enzyme

[1] = molecular target: Leucothrix mucor DSM2157 isoaspartyl dipeptidase (LmIadA), as crystallised (Leucothrix mucor DSM2157); test: crystal structure; LmIadA 20 mg/ml, sitting drop, 0.56 M NaH2PO4 and 1.04 M K2HPO4, 22 °C; 1.8 Å; molecular replacement with PDB 1YBQ
[2] = molecular target: Leucothrix mucor DSM2157 isoaspartyl dipeptidase (LmIadA), purified enzyme as examined in solution (Leucothrix mucor DSM2157); test: not stated; purified enzyme in solution; shown in Supplementary Fig. S2; the method is not given
[3] = molecular target: Roseivivax halodurans DSM15395 isoaspartyl aminopeptidase (RhIaaA), heterodimer of subunits a and b (Roseivivax halodurans DSM15395); test: as above
[4] = molecular target: Roseivivax halodurans DSM15395 isoaspartyl aminopeptidase (RhIaaA), heterodimer of subunits a and b (Roseivivax halodurans DSM15395); test: crystal structure; RhIaaA 10 mg/ml, sitting drop, 0.1 M bis-tris propane pH 8.5, 0.2 M disodium malonate, 25% PEG3350, 4 °C; 2.7 Å; molecular replacement with PDB 2ZAL

Molecule: N=C(N)NCCC[C@H](NC(=O)C[C@H](N)C(=O)O)C(=O)O [β-Asp-Arg]
coupled Asp release assay (aspartate aminotransferase / malate dehydrogenase, NA) (LmIadA): it displayed no apparent preference towards β-Asp-Arg/Lys (Fig. 2a)

Molecule: NCCCC[C@H](NC(=O)C[C@H](N)C(=O)O)C(=O)O [β-Asp-Lys]
coupled Asp release assay (aspartate aminotransferase / malate dehydrogenase, NA) (LmIadA): it displayed no apparent preference towards β-Asp-Arg/Lys (Fig. 2a)

Molecule: Roseivivax halodurans DSM15395 isoaspartyl aminopeptidase (RhIaaA), heterodimer of subunits a and b (complex)
stoichiometry N [3]: 2 | stoichiometry N [4]: 2

The remaining lines, values ahead:

stoichiometry N [1]: 8
Molecule: Leucothrix mucor DSM2157 isoaspartyl dipeptidase (LmIadA), as crystallised (enzyme)

stoichiometry N [2]: 8
Molecule: Leucothrix mucor DSM2157 isoaspartyl dipeptidase (LmIadA), purified enzyme as examined in solution
